Drawing on paper PMC8028046 (2021), this text covers Kd for 1 molecule.

For the assay, the target named is amyloid-beta fibrils (Homo sapiens, UniProt P05067). The assay can be described thus: SPR. A general note: SPR reads the build-up and loss of mass on a sensor chip optically.

Usually Kd stands for the free concentration of one partner at which half of the binding sites on the other are occupied at equilibrium, for simple one-to-one binding. A higher Kd goes with lower affinity.

Sequence of amyloid-beta fibrils (P05067 672-713): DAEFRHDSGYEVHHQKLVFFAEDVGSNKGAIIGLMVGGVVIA

B1: proSP-C BRICHOS BRICHOS (protein)
chain: TATFSIGSTGLVVYDYQQLLIAYKPAPGTCCYIMKIAPESIPSLEALTRKVHNFQMECSLQAKPAVPTSKLGQAEGRDAGSAPSGGDPAFLGMAVSTLCGEVPLYYI
On to B1, for which the Kd was about 130 nM.
